Patent US20180086849A1 (Hoffmann-La Roche, published 2018)

T1: hu-MCSP(D3 domain)-avi-his (human, UniProt Q6UVK1 1582-2224, biotinylated where used for selection or for coupling to the SA chip)
T1 construct: also called human MCSP(D3 domain)-avi-his; human MCSP D3
T1 sequence: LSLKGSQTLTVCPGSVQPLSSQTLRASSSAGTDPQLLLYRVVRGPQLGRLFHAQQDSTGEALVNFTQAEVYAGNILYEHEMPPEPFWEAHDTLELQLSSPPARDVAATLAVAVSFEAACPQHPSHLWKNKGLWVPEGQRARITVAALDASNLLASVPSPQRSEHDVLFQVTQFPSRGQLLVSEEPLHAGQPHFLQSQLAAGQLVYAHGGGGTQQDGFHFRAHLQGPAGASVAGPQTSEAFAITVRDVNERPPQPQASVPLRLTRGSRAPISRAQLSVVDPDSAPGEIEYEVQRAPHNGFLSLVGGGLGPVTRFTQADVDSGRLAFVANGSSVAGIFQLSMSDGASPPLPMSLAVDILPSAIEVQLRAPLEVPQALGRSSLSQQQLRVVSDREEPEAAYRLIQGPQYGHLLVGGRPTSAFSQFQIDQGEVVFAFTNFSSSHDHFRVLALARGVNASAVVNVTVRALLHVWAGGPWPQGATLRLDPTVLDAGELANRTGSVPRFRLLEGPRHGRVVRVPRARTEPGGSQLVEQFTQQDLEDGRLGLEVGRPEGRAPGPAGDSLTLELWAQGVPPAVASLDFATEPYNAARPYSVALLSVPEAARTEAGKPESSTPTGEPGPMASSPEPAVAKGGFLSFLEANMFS

T2: cynomolgus MCSP D3 (cynomolgus, UniProt Q6UVK1 1582-2224 (human entry))
T2 construct: also called cynomolgus homologue; not shown: C-terminal tag
T2 chain: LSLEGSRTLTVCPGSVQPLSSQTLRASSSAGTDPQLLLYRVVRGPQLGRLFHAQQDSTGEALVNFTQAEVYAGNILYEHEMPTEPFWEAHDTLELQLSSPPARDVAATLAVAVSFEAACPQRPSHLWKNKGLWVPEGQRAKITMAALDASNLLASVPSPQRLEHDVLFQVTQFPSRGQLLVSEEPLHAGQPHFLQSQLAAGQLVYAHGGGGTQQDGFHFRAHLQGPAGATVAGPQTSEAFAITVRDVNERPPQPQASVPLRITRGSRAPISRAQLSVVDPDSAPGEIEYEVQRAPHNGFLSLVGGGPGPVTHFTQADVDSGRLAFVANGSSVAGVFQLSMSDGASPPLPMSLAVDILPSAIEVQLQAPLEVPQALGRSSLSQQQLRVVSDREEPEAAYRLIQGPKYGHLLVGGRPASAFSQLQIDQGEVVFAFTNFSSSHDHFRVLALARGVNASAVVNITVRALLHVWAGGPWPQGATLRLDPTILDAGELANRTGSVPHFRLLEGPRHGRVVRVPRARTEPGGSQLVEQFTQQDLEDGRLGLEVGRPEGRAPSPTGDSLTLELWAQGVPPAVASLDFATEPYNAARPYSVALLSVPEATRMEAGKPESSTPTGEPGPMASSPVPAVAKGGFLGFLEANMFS

B1: M4-3(B7)/ML2 (IgG) (antibody, V domains shown)
VH: QVQLQESGPGLVKPSQTLSLTCTVSGGSITSGYYWNWIRQHPGKGLEWIGYITFDGINNYNPSLKSRVTISRDTSKNQFSLKLSSVTAADTAVYYCADFDYWGQGTLVTVSS
VL: DIQMTQSPSSLSASVGDRVTITCRASQGIRNYLNWYQQKPGKAPKLLIYYTSSLHSGVPSRFSGSGSGTDFTLTISSLQPEDFATYYCQQYSKLPWTFGQGTKVEIK
notes: Human IgG1 format
B2: M4-3(C1)/ML2 (IgG) (antibody, V domains shown)
VH: QVQLQESGPGLVKPSQTLSLTCTVSGGSITSGYYWNWIRQHPGKGLEWIGYITFDGSNNYNPSLKSRVTISRDTSKNQFSLKLSSVTAADTAVYYCADFDYWGQGTLVTVSS
VL: DIQMTQSPSSLSASVGDRVTITCRASQGIRNYLNWYQQKPGKAPKLLIYYTSSLHSGVPSRFSGSGSGTDFTLTISSLQPEDFATYYCQQYSKLPWTFGQGTKVEIK
notes: Human IgG1 format
B3: M4-3(A7)/ML2(E10) (IgG) (antibody, V domains shown)
VH: QVQLQESGPGLVKPSQTLSLTCTVSGGSITDGYYWNWIRQHPGKGLEWIGYITFDGRNNYNPSLKSRVTISRDTSKNQFSLKLSSVTAADTAVYYCADFDYWGQGTLVTVSS
VL: DIQMTQSPSSLSASVGDRVTITCRASYGIRGYLNWYQQKPGKAPKLLIYYTSSLHSGVPSRFSGSGSGTDFTLTISSLQPEDFATYHCQQYSKLPWTFGQGTKVEIK
notes: Human IgG1 format
B4: M4-3(A7)/ML2(G3) (IgG) (antibody, V domains shown)
VH: QVQLQESGPGLVKPSQTLSLTCTVSGGSITDGYYWNWIRQHPGKGLEWIGYITFDGRNNYNPSLKSRVTISRDTSKNQFSLKLSSVTAADTAVYYCADFDYWGQGTLVTVSS
VL: DIQMTQSPSSLSASVGDRVTITCRASQGIRNYLNWYQQKPGKAPKLLIYYTSSLHSGVPSRFSGSGSGTDYTLTISSLQPEDFATYYCQQYSALPWTFGQGTKVEIK
notes: Human IgG1 format
B5: M4-3(C1)/ML2(E10) (IgG) (antibody, V domains shown)
VH: QVQLQESGPGLVKPSQTLSLTCTVSGGSITSGYYWNWIRQHPGKGLEWIGYITFDGSNNYNPSLKSRVTISRDTSKNQFSLKLSSVTAADTAVYYCADFDYWGQGTLVTVSS
VL: DIQMTQSPSSLSASVGDRVTITCRASYGIRGYLNWYQQKPGKAPKLLIYYTSSLHSGVPSRFSGSGSGTDFTLTISSLQPEDFATYHCQQYSKLPWTFGQGTKVEIK
notes: Human IgG1 format
B6: M4-3(D6)/ML2 (IgG) (antibody, V domains shown)
VH: QVQLQESGPGLVKPSQTLSLTCTVSGGSITSGYYWNWIRQHPGKGLEWIGYITFDGKNNYNPSLKSRVTISRDTSKNQFSLKLSSVTAADTAVYYCADFDYWGQGTLVTVSS
VL: DIQMTQSPSSLSASVGDRVTITCRASQGIRNYLNWYQQKPGKAPKLLIYYTSSLHSGVPSRFSGSGSGTDFTLTISSLQPEDFATYYCQQYSKLPWTFGQGTKVEIK
notes: Human IgG1 format
B7: M4-3(B8)/ML2 (IgG) (antibody, V domains shown)
VH: QVQLQESGPGLVKPSQTLSLTCTVSGGSITSGYYWNWIRQHPGKGLEWIGYITFDGRNNYNPSLKSRVTISRDTSKNQFSLKLSSVTAADTAVYYCADFDYWGQGTLVTVSS
VL: DIQMTQSPSSLSASVGDRVTITCRASQGIRNYLNWYQQKPGKAPKLLIYYTSSLHSGVPSRFSGSGSGTDFTLTISSLQPEDFATYYCQQYSKLPWTFGQGTKVEIK
notes: Human IgG1 format
B8: M4-3/ML2 (C5) (IgG) (antibody, V domains shown)
VH: QVQLQESGPGLVKPSQTLSLTCTVSGGSITSGYYWNWIRQHPGKGLEWIGYITYDGSNNYNPSLKSRVTISRDTSKNQFSLKLSSVTAADTAVYYCADFDYWGQGTLVTVSS
VL: DIQMTQSPSSLSASVGDRVTITCRASRGIREYLNWYQQKPGKAPKLLIYYTGSLHSGVPSRFSGSGSGTDFTLTISSLQPEDFATYYCQQYSELPWTFGQGTKVEIK
notes: Human IgG1 format
B9: M4-3(A7)/ML2 (IgG) (antibody, V domains shown)
VH: QVQLQESGPGLVKPSQTLSLTCTVSGGSITDGYYWNWIRQHPGKGLEWIGYITFDGRNNYNPSLKSRVTISRDTSKNQFSLKLSSVTAADTAVYYCADFDYWGQGTLVTVSS
VL: DIQMTQSPSSLSASVGDRVTITCRASQGIRNYLNWYQQKPGKAPKLLIYYTSSLHSGVPSRFSGSGSGTDFTLTISSLQPEDFATYYCQQYSKLPWTFGQGTKVEIK
notes: Human IgG1 format
B10: M4-3(C1)/ML2(C5) (IgG) (antibody, V domains shown)
VH: QVQLQESGPGLVKPSQTLSLTCTVSGGSITSGYYWNWIRQHPGKGLEWIGYITFDGSNNYNPSLKSRVTISRDTSKNQFSLKLSSVTAADTAVYYCADFDYWGQGTLVTVSS
VL: DIQMTQSPSSLSASVGDRVTITCRASRGIREYLNWYQQKPGKAPKLLIYYTGSLHSGVPSRFSGSGSGTDFTLTISSLQPEDFATYYCQQYSELPWTFGQGTKVEIK
notes: Human IgG1 format
B11: M4-3/ML2 (C5/G3) (IgG) (antibody, V domains shown)
VH: QVQLQESGPGLVKPSQTLSLTCTVSGGSITSGYYWNWIRQHPGKGLEWIGYITYDGSNNYNPSLKSRVTISRDTSKNQFSLKLSSVTAADTAVYYCADFDYWGQGTLVTVSS
VL: DIQMTQSPSSLSASVGDRVTITCRASRGIREYLNWYQQKPGKAPKLLIYYTGSLHSGVPSRFSGSGSGTDFTLTISSLQPEDFATYYCQQYSALPWTFGQGTKVEIK
notes: Human IgG1 format
B12: M4-3/ML2(G3) (IgG) (antibody, V domains shown)
VH: QVQLQESGPGLVKPSQTLSLTCTVSGGSITSGYYWNWIRQHPGKGLEWIGYITYDGSNNYNPSLKSRVTISRDTSKNQFSLKLSSVTAADTAVYYCADFDYWGQGTLVTVSS
VL: DIQMTQSPSSLSASVGDRVTITCRASQGIRNYLNWYQQKPGKAPKLLIYYTSSLHSGVPSRFSGSGSGTDYTLTISSLQPEDFATYYCQQYSALPWTFGQGTKVEIK
notes: Human IgG1 format
B13: M4-3/ML2 (E10) (IgG) (antibody, V domains shown)
VH: QVQLQESGPGLVKPSQTLSLTCTVSGGSITSGYYWNWIRQHPGKGLEWIGYITYDGSNNYNPSLKSRVTISRDTSKNQFSLKLSSVTAADTAVYYCADFDYWGQGTLVTVSS
VL: DIQMTQSPSSLSASVGDRVTITCRASYGIRGYLNWYQQKPGKAPKLLIYYTSSLHSGVPSRFSGSGSGTDFTLTISSLQPEDFATYHCQQYSKLPWTFGQGTKVEIK
notes: Human IgG1 format

Key:
[1] = molecular target: T1, hu-MCSP(D3 domain)-avi-his; assay: SPR (ProteOn XPR36), IgG KD against parental M4-3/ML2
Method: (§1) Briefly, carboxymethylated dextran biosensor chips (CM5, GE Healthcare) were activated with N-ethyl-N′-(3-dimethylaminopropyl)-carbodiimide hydrochloride (EDC) and N-hydroxysuccinimide (NHS) according to the supplier's instructions. Anti-human F(ab′)2 fragment specific capture antibody was diluted with 10 mM sodium acetate, pH 5.0 at 50 μg/ml before injection at a flow rate of 10 μl/minute to achieve approximately up to 10.000 response units (RU) of coupled capture antibody. Following the injection of the capture antibody, 1 M ethanolamine was injected to block unreacted groups. For kinetics measurements, Fabs from bacterial supernatant or purified Fabs are injected at a flow rate of 10 ul/minute for 300 s and a dissociation of 300 s for capture baseline stabilization. […] The surface of the sensorchip was regenerated by injection of glycine pH 1.5 for 30 s at 90 ul/min followed by injection of NaOH for 20 s at the same flow rate. Association rates (kon) and dissociation rates (koff) were calculated using a simple one-to-one Langmuir binding model (ProteOn XPR36 Evaluation Software or Scrubber software (BioLogic)) by simultaneously fitting the association and dissociation sensorgrams. The equilibrium dissociation constant (KD) was calculated as the ratio koff/kon. […] Since CDR1 and 2 of the light chain were randomized independent from CDR3, the obtained CDRs were combined during IgG conversion.
(§2) In the IgG format affinities were measured again to the human MCSP antigen (SEQ ID NO. 390), in addition also to the cynomolgus homologue (SEQ ID NO. 389). Method exactly as described for the Fab fragments, just purified IgG from mammalian production were used.

[2] = molecular target: T2, cynomolgus MCSP D3; assay: as above
Method: as §1, §2

Binder	Comparative binding affinity - Fold increase over parent [1] [fold]	Comparative binding affinity - Fold increase over parent [2] [fold]
B1	4	2.9
B2	2.2	2.5
B3	6.7	2.9
B4	28.6	10
B5	4	3.3
B6	5	2
B7	2.2	2
B8	5	2
B9	2.5	2
B10	10	6.7
B11	2.9	2
B12	6.7	3.3
B13	2	1
